Results from patent US20190194722, “METHOD” (Oxford Nanopore Technologies Ltd., published 2019).

B1: transposon 2 (dsDNA)
DNA 1: GTTTTCGCATTTATCGTGAAACGCTTTCGCGTTTTTCGTGCGCCGCTTCA
DNA 2: GATCTGAAGCGGCGCACGAAAAACGCGAAAGCGTTTCACGATAAATGCGAAAACTTTTTTTTTT
B2: MuA adapter (Example 2) (dsDNA)
DNA 1: B1 DNA 2
DNA 2: TGCTGATATTGCGTTTTCGCATTTATCGTGAAACGCTTTCGCGTTTTTCGTGCGCCGCTTCA

Tests used:
[1] = target: T1, MuA transposase (UniProt P07636 P07636:1-663); test: MuA stays bound after transposition into PhiX174 at room temperature (no Bioanalyser peak); released at 75 C; 10 mM MgCl2, 110 mM NaCl, pH 8; details: tags: ThermoFisher Scientific; chain copies: 4; 3' overhang on bottom strand
T1 sequence (P07636 whole entry, one chain of several): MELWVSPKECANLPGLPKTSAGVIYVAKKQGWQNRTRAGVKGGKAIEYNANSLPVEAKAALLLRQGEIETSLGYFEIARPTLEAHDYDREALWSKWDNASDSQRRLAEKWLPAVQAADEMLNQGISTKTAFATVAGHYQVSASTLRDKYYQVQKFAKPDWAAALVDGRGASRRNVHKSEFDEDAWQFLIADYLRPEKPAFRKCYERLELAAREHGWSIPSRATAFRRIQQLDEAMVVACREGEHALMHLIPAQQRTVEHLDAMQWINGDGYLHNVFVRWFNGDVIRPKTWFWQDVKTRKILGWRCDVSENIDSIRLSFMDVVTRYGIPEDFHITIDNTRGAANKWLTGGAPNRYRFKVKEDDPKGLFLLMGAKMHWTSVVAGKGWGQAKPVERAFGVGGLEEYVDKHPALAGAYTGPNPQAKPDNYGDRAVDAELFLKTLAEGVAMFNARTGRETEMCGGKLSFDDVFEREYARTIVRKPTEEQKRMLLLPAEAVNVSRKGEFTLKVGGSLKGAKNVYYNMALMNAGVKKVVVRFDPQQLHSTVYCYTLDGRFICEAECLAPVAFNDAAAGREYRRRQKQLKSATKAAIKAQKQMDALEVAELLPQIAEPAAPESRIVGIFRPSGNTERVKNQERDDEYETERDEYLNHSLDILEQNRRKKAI
Description: Transpososome 1 and transpososome 2 were each mixed to 50 nM with 1.5 ug of PhiX174 RFI DNA (New England Biolabs) in 25 mM Tris.HCl pH8, 110 mM NaCl and 10 mM MgCl₂ in a 30 ul reaction in a 0.2 ml PCR tube. Each reaction was incubated at room temperature for 2 minutes before being split […] to form 3 tubes of 10 uls for each. 1 tube of each transpososome was incubated at 75° C. for 5 minutes, 1 tube of each transpososome was left at room temperature for 5 minutes with nothing added. Hel308Mbu-E284C/S615C-STrEP(C) (1 uM) was added to the final tubes along with 10 mM of ATP (Sigma-Aldrich) and incubated at room temperature for 5 minutes. 1 ul of each reaction was then analysed on the Agilent 2100 Bioanalyser 12,000 bp setting, along with 1 ul of unmodified PhiX.

[2] = target: T1, MuA transposase; test: MuA stays bound at room temperature; tagmentation peak only after 75 C; MgCl2 buffer; details: tags: ThermoFisher Scientific; chain copies: 4; 5' bottom strand flap, 12 nt 5' tail on top strand, 10 nt 3' tail on bottom strand
Description: A transposome complex was formed but addition of 1 ul of the MuA adapter, 4.5 ul of nuclease free water, 2 ul of 5× transposome buffer (125 mM Tris pH 8, 550 mM NaCl, 2.5 mM EDTA, 50% glycerol, 0.25% Triton-X100) and 2.5 ul of concentrated MuA transposase (Thermofisher). The mixture was then incubated at 30° C. for 1.5 hours.
A transposition reaction, containing 10 ul of 5× transposase buffer (125 mM Tris pH 8, 550 mM NaCl, 50 mM MgCl2), 5 ul transposome, 2.5 ug PhiX RFI (NEB) and nuclease free water to 50 ul, was then carried out at room temperature for 10 minutes. After 10 mins 6.25 ul of 100 mM rATP was added and the reaction was split into 5×11.25 ul. To sample (i) and (ii) 1.25 ul of nuclease free water was added; to sample (iii) 1.25 ul of Hel308Mbu-E284C-STrEP(C) (SEQ ID NO: 10 with mutation E284C with a streptavidin tag attached at its C terminus) was added; to sample (iv) 1.25 ul of T4 Dda—(E94C/F98W/C109A/C136A/A360C) (SEQ ID NO: 97 with mutations E94C/F98W/C109A/C136A/A360C and then (ΔM1)G1G2 (where (ΔM1)G1G2=deletion of M1 and then addition G1 and G2), was added; to sample (v) 1.25 ul of UvrD Eco-(E117C/M380C)-STrEP (SEQ ID NO: 122 with mutations E177C/M380C with a streptavidin tag attached at the C terminus). Samples (i), (iii), (iv) and (v) were then left at room temperature for 10 mins while sample (ii) was left at 75° C. for 10 mins. […]

Binder | binding result [1] | binding result [2]
B1 | binds | 
B2 |  | binds
